Here are results for 3 molecules from patent US20240254231A1 (PETMEDIX, published 2024).

Assay [1] concerns the target T1, recombinant human PD-1 ECD-6His protein (Bio-Techne, item BP164049-1 mg) (human, UniProt Q15116 25-170).
T1 construct: extracellular domain; Bought protein; also called human PD-1-ED-6His; recombinant human PD-1 protein; not shown: hexahistidine tag
As to the kind of experiment: SPR, mAb captured on protein A chip, PD-1 protein injected.

The target in the next assay is T2, canine PD-1 ECD-6His (canine).
T2 construct: also called recombinant canine PD-1-ECD-6His protein; not shown: hexahistidine tag
T2 chain: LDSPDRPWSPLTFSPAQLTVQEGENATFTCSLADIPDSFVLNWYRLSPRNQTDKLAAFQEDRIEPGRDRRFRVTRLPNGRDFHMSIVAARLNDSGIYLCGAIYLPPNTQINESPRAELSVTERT
As to the kind of experiment: SPR multi-cycle kinetics, mAb captured on protein A chip, monomeric PD-1 ECD-6His analyte.

T1 sequence (Q15116 25-170): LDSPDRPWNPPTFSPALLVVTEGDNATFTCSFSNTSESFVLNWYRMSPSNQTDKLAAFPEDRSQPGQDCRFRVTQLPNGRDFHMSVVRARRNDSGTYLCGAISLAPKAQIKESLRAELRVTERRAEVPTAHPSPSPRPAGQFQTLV
Experimental for canine PD-1 ECD-6His: SPR-based monomeric affinity assays were conducted as multi-cycle kinetic experiments. Around 100 RU of purified monoclonal antibody was captured on Fc2 of a series S protein A chip (Cytiva). […] At the end of each cycle, the chip surface was regenerated with a 120 s pulse of 10 mM Glycine pH 1.9 at 30 μL/min. The data were analysed using Biacore Insight package (Cytiva) by fitting to a global 1:1 binding model with kinetic analysis.

B1: PMX126 (antibody, V domains shown)
VH: EVQLVESGGDLVKPAGSLRLSCLASGFTFSSYSMSWVRQAPEKGLQSVAGINSDGDRTYYTDAVKGRFTISRDNAKSTVYLQMNSLRAEDTAMYYCVRGFSSFNAFGYWGQGTLVTVSS
VL: DIVMTQTPLSLSVSPGETASISCKASQSLLHSDGNTYLSWFRQKPGQSPHRLIYAVSHRHPGVPDRFSGSGSGTDFTLRISRVEADDAGLYYCGQVIQDPWTFGAGTKVELK
notes: Alexa Fluor 647-labelled in some assays
For the molecule B1, the binding result in assay [1] is reported as “no binding (tested: 900 nM)”.

B2: PMX152 (antibody, V domains shown)
VH: EVQLVESGGDLVKPGGSLRLSCVASGFTFSRYYMNWVRQAPGKGPQWVAYINNAGSDRNYVDAVKGRFTISRDNAKNTLYLQMNSLRAEDTAVYYCASEIRGVVVVGHLDYWGQGTLVTVSS
VL: SYVLTQLPSKSVTLNQPAHITCGGDNIGSKSVHWYQQKLGQAPVLIIYYDSIRPTGIPERFSGATSGNTATLTISGALAEDEADYYCQVWDSSAKAWVFGEGTQLTVL
notes: also called PM152
As to B2, the binding result in the assay with canine PD-1 ECD-6His was “binds”.

B3: PMX127 (antibody, V domains shown)
VH: EVQLVESGGDLVKPGGSLRLSCVASGFSFSRYHMSWVRQAPGKGLQWVAYIVSGGISTSYADAVKGRFTISRDNAKNTLFLQMNSLRAEDTAVYYCATYGSYFFDTWGQGTLVTVSS
VL: DIVMTQTPLSLSVSPGETASIFCKASQSLLHSDGKSYLNWFRQKPGQSPQRLIYRVSNRDPGVPDRFSGSGSGTDFTLRISRVEADDTGLYYCGQVIQDPTFGAGTKVELK
notes: Alexa Fluor 647-labelled in some assays; also called PM127
For B3, the binding result in assay [1] is “no binding (tested: 900 nM)”.
